Experimental data as given in patent US20260201008A1, “SECRETIN-DERIVED GLP1R SELECTIVE AGONISTS” (GUBRA A/S, priority 2023, published 2026).
Numbered stars: 1 amine (or outer) side, 2 acyl side, 3 side chain; on linkers, the order of the positions; unused ones are H or OH. Square brackets hold non-standard residues; d marks the D form. Side chains are listed from the residue outwards. Ends that are not written are not given here. * marks the point of attachment. C20 diacid = O=C(O)CCCCCCCCCCCCCCCCCCC(=O)*; γGlu = O=C(O)[C@H](CCC(=O)[*:2])N[*:1]; AEEA = NCCOCCOCC(=O)O; Aib = CC(C)(N)C(=O)O

B1: SEQ ID NO: 191 (peptide)
peptide: H[Aib]EGTFTSDWSWLLEGAALQRFIQWLV-NH2
modifications: N-terminus assumed
SMILES: CC[C@H](C)[C@H](NC(=O)[C@H](Cc1ccccc1)NC(=O)[C@H](CCCNC(=N)N)NC(=O)[C@H](CCC(N)=O)NC(=O)[C@H](CC(C)C)NC(=O)[C@H](C)NC(=O)[C@H](C)NC(=O)CNC(=O)[C@H](CCC(=O)O)NC(=O)[C@H](CC(C)C)NC(=O)[C@H](CC(C)C)NC(=O)[C@H](Cc1c[nH]c2ccccc12)NC(=O)[C@H](CO)NC(=O)[C@H](Cc1c[nH]c2ccccc12)NC(=O)[C@H](CC(=O)O)NC(=O)[C@H](CO)NC(=O)[C@@H](NC(=O)[C@H](Cc1ccccc1)NC(=O)[C@@H](NC(=O)CNC(=O)[C@H](CCC(=O)O)NC(=O)C(C)(C)NC(=O)[C@@H](N)Cc1c[nH]cn1)[C@@H](C)O)[C@@H](C)O)C(=O)N[C@@H](CCC(N)=O)C(=O)N[C@@H](Cc1c[nH]c2ccccc12)C(=O)N[C@@H](CC(C)C)C(=O)N[C@H](C(N)=O)C(C)C
B2: SEQ ID NO: 190 (peptide)
peptide: H[Aib]EGTFTSDWSFLLEGAALQRFIQWLV-NH2
modifications: N-terminus assumed
SMILES: CC[C@H](C)[C@H](NC(=O)[C@H](Cc1ccccc1)NC(=O)[C@H](CCCNC(=N)N)NC(=O)[C@H](CCC(N)=O)NC(=O)[C@H](CC(C)C)NC(=O)[C@H](C)NC(=O)[C@H](C)NC(=O)CNC(=O)[C@H](CCC(=O)O)NC(=O)[C@H](CC(C)C)NC(=O)[C@H](CC(C)C)NC(=O)[C@H](Cc1ccccc1)NC(=O)[C@H](CO)NC(=O)[C@H](Cc1c[nH]c2ccccc12)NC(=O)[C@H](CC(=O)O)NC(=O)[C@H](CO)NC(=O)[C@@H](NC(=O)[C@H](Cc1ccccc1)NC(=O)[C@@H](NC(=O)CNC(=O)[C@H](CCC(=O)O)NC(=O)C(C)(C)NC(=O)[C@@H](N)Cc1c[nH]cn1)[C@@H](C)O)[C@@H](C)O)C(=O)N[C@@H](CCC(N)=O)C(=O)N[C@@H](Cc1c[nH]c2ccccc12)C(=O)N[C@@H](CC(C)C)C(=O)N[C@H](C(N)=O)C(C)C
B3: SEQ ID NO: 188 (peptide)
peptide: H[Aib]EGTFTSDWSVLLEGAALQRFIQWLV-NH2
modifications: N-terminus assumed
SMILES: CC[C@H](C)[C@H](NC(=O)[C@H](Cc1ccccc1)NC(=O)[C@H](CCCNC(=N)N)NC(=O)[C@H](CCC(N)=O)NC(=O)[C@H](CC(C)C)NC(=O)[C@H](C)NC(=O)[C@H](C)NC(=O)CNC(=O)[C@H](CCC(=O)O)NC(=O)[C@H](CC(C)C)NC(=O)[C@H](CC(C)C)NC(=O)[C@@H](NC(=O)[C@H](CO)NC(=O)[C@H](Cc1c[nH]c2ccccc12)NC(=O)[C@H](CC(=O)O)NC(=O)[C@H](CO)NC(=O)[C@@H](NC(=O)[C@H](Cc1ccccc1)NC(=O)[C@@H](NC(=O)CNC(=O)[C@H](CCC(=O)O)NC(=O)C(C)(C)NC(=O)[C@@H](N)Cc1c[nH]cn1)[C@@H](C)O)[C@@H](C)O)C(C)C)C(=O)N[C@@H](CCC(N)=O)C(=O)N[C@@H](Cc1c[nH]c2ccccc12)C(=O)N[C@@H](CC(C)C)C(=O)N[C@H](C(N)=O)C(C)C
B4: SEQ ID NO: 193 (peptide)
peptide: H[Aib]EGTFTSDWSELLEGAALQRFIQWLV-NH2
modifications: N-terminus assumed
SMILES: CC[C@H](C)[C@H](NC(=O)[C@H](Cc1ccccc1)NC(=O)[C@H](CCCNC(=N)N)NC(=O)[C@H](CCC(N)=O)NC(=O)[C@H](CC(C)C)NC(=O)[C@H](C)NC(=O)[C@H](C)NC(=O)CNC(=O)[C@H](CCC(=O)O)NC(=O)[C@H](CC(C)C)NC(=O)[C@H](CC(C)C)NC(=O)[C@H](CCC(=O)O)NC(=O)[C@H](CO)NC(=O)[C@H](Cc1c[nH]c2ccccc12)NC(=O)[C@H](CC(=O)O)NC(=O)[C@H](CO)NC(=O)[C@@H](NC(=O)[C@H](Cc1ccccc1)NC(=O)[C@@H](NC(=O)CNC(=O)[C@H](CCC(=O)O)NC(=O)C(C)(C)NC(=O)[C@@H](N)Cc1c[nH]cn1)[C@@H](C)O)[C@@H](C)O)C(=O)N[C@@H](CCC(N)=O)C(=O)N[C@@H](Cc1c[nH]c2ccccc12)C(=O)N[C@@H](CC(C)C)C(=O)N[C@H](C(N)=O)C(C)C
B5: SEQ ID NO: 192 (peptide)
peptide: H[Aib]EGTFTSDWS[Aib]LLEGAALQRFIQWLV-NH2
modifications: N-terminus assumed
SMILES: CC[C@H](C)[C@H](NC(=O)[C@H](Cc1ccccc1)NC(=O)[C@H](CCCNC(=N)N)NC(=O)[C@H](CCC(N)=O)NC(=O)[C@H](CC(C)C)NC(=O)[C@H](C)NC(=O)[C@H](C)NC(=O)CNC(=O)[C@H](CCC(=O)O)NC(=O)[C@H](CC(C)C)NC(=O)[C@H](CC(C)C)NC(=O)C(C)(C)NC(=O)[C@H](CO)NC(=O)[C@H](Cc1c[nH]c2ccccc12)NC(=O)[C@H](CC(=O)O)NC(=O)[C@H](CO)NC(=O)[C@@H](NC(=O)[C@H](Cc1ccccc1)NC(=O)[C@@H](NC(=O)CNC(=O)[C@H](CCC(=O)O)NC(=O)C(C)(C)NC(=O)[C@@H](N)Cc1c[nH]cn1)[C@@H](C)O)[C@@H](C)O)C(=O)N[C@@H](CCC(N)=O)C(=O)N[C@@H](Cc1c[nH]c2ccccc12)C(=O)N[C@@H](CC(C)C)C(=O)N[C@H](C(N)=O)C(C)C
B6: SEQ ID NO: 189 (peptide)
peptide: H[Aib]EGTFTSDWSYLLEGAALQRFIQWLV-NH2
modifications: N-terminus assumed
SMILES: CC[C@H](C)[C@H](NC(=O)[C@H](Cc1ccccc1)NC(=O)[C@H](CCCNC(=N)N)NC(=O)[C@H](CCC(N)=O)NC(=O)[C@H](CC(C)C)NC(=O)[C@H](C)NC(=O)[C@H](C)NC(=O)CNC(=O)[C@H](CCC(=O)O)NC(=O)[C@H](CC(C)C)NC(=O)[C@H](CC(C)C)NC(=O)[C@H](Cc1ccc(O)cc1)NC(=O)[C@H](CO)NC(=O)[C@H](Cc1c[nH]c2ccccc12)NC(=O)[C@H](CC(=O)O)NC(=O)[C@H](CO)NC(=O)[C@@H](NC(=O)[C@H](Cc1ccccc1)NC(=O)[C@@H](NC(=O)CNC(=O)[C@H](CCC(=O)O)NC(=O)C(C)(C)NC(=O)[C@@H](N)Cc1c[nH]cn1)[C@@H](C)O)[C@@H](C)O)C(=O)N[C@@H](CCC(N)=O)C(=O)N[C@@H](Cc1c[nH]c2ccccc12)C(=O)N[C@@H](CC(C)C)C(=O)N[C@H](C(N)=O)C(C)C
B7: SEQ ID NO: 195 (peptide)
peptide: H[Aib]EGTFTSDYSGLLEGAALQRFIQWLV-NH2
modifications: N-terminus assumed
SMILES: CC[C@H](C)[C@H](NC(=O)[C@H](Cc1ccccc1)NC(=O)[C@H](CCCNC(=N)N)NC(=O)[C@H](CCC(N)=O)NC(=O)[C@H](CC(C)C)NC(=O)[C@H](C)NC(=O)[C@H](C)NC(=O)CNC(=O)[C@H](CCC(=O)O)NC(=O)[C@H](CC(C)C)NC(=O)[C@H](CC(C)C)NC(=O)CNC(=O)[C@H](CO)NC(=O)[C@H](Cc1ccc(O)cc1)NC(=O)[C@H](CC(=O)O)NC(=O)[C@H](CO)NC(=O)[C@@H](NC(=O)[C@H](Cc1ccccc1)NC(=O)[C@@H](NC(=O)CNC(=O)[C@H](CCC(=O)O)NC(=O)C(C)(C)NC(=O)[C@@H](N)Cc1c[nH]cn1)[C@@H](C)O)[C@@H](C)O)C(=O)N[C@@H](CCC(N)=O)C(=O)N[C@@H](Cc1c[nH]c2ccccc12)C(=O)N[C@@H](CC(C)C)C(=O)N[C@H](C(N)=O)C(C)C
B8: SEQ ID NO: 184 (peptide)
peptide: H[Aib]EGTFTSDVSVLLEGAALQRFIQWLV-NH2
modifications: N-terminus assumed
SMILES: CC[C@H](C)[C@H](NC(=O)[C@H](Cc1ccccc1)NC(=O)[C@H](CCCNC(=N)N)NC(=O)[C@H](CCC(N)=O)NC(=O)[C@H](CC(C)C)NC(=O)[C@H](C)NC(=O)[C@H](C)NC(=O)CNC(=O)[C@H](CCC(=O)O)NC(=O)[C@H](CC(C)C)NC(=O)[C@H](CC(C)C)NC(=O)[C@@H](NC(=O)[C@H](CO)NC(=O)[C@@H](NC(=O)[C@H](CC(=O)O)NC(=O)[C@H](CO)NC(=O)[C@@H](NC(=O)[C@H](Cc1ccccc1)NC(=O)[C@@H](NC(=O)CNC(=O)[C@H](CCC(=O)O)NC(=O)C(C)(C)NC(=O)[C@@H](N)Cc1c[nH]cn1)[C@@H](C)O)[C@@H](C)O)C(C)C)C(C)C)C(=O)N[C@@H](CCC(N)=O)C(=O)N[C@@H](Cc1c[nH]c2ccccc12)C(=O)N[C@@H](CC(C)C)C(=O)N[C@H](C(N)=O)C(C)C
B9: SEQ ID NO: 187 (peptide)
peptide: H[Aib]EGTFTSDWSGLLEGAALQRFIQWLV-NH2
modifications: N-terminus assumed
SMILES: CC[C@H](C)[C@H](NC(=O)[C@H](Cc1ccccc1)NC(=O)[C@H](CCCNC(=N)N)NC(=O)[C@H](CCC(N)=O)NC(=O)[C@H](CC(C)C)NC(=O)[C@H](C)NC(=O)[C@H](C)NC(=O)CNC(=O)[C@H](CCC(=O)O)NC(=O)[C@H](CC(C)C)NC(=O)[C@H](CC(C)C)NC(=O)CNC(=O)[C@H](CO)NC(=O)[C@H](Cc1c[nH]c2ccccc12)NC(=O)[C@H](CC(=O)O)NC(=O)[C@H](CO)NC(=O)[C@@H](NC(=O)[C@H](Cc1ccccc1)NC(=O)[C@@H](NC(=O)CNC(=O)[C@H](CCC(=O)O)NC(=O)C(C)(C)NC(=O)[C@@H](N)Cc1c[nH]cn1)[C@@H](C)O)[C@@H](C)O)C(=O)N[C@@H](CCC(N)=O)C(=O)N[C@@H](Cc1c[nH]c2ccccc12)C(=O)N[C@@H](CC(C)C)C(=O)N[C@H](C(N)=O)C(C)C

target: human GLP-1 receptor (hGLP1R) (human, UniProt P43220 24-463); assay: cell-based or functional assay

Binder	pEC50 hGLPR1
B1	10.1 -log M
B2	10.2 -log M
H[Aib]EGTFTSDVSRLK([AEEA-AEEA-γGlu-C20 diacid])ELAASQRFLEHLV-NH2 [SEQ ID NO: 19]	10.1 -log M
B3	10.1 -log M
B4	10.6 -log M
B5	9.9 -log M
B6	10.8 -log M
B7	10.6 -log M
H[Aib]EGTFTSDVSTLK([AEEA-AEEA-γGlu-C20 diacid])ETAASQRFLEHLV-NH2 [SEQ ID NO: 20]	10.7 -log M
B8	10.6 -log M
B9	10.4 -log M
H[Aib]EGTFTSDWSYLK([AEEA-AEEA-γGlu-C20 diacid])EEA[Aib]LQRFLEHLV-NH2 [SEQ ID NO: 185]	11.2 -log M

target: human secretin receptor (hSCTR) (human, UniProt P47872 23-440); assay: cell-based or functional assay
Sequence (P47872 23-440): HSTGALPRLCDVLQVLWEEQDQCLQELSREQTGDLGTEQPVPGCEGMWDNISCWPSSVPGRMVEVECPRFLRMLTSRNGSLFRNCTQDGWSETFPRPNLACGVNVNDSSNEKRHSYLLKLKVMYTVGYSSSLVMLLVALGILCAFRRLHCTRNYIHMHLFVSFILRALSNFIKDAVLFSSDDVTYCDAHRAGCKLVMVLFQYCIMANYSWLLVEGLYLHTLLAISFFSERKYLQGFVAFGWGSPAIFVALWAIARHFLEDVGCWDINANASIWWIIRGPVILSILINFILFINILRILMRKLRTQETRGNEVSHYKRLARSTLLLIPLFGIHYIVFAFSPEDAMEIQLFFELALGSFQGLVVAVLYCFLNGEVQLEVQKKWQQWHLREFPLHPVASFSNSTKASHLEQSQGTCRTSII

Binder	pEC50 hSCTR
B1	7.2 -log M
B2	7 -log M
H[Aib]EGTFTSDVSRLK([AEEA-AEEA-γGlu-C20 diacid])ELAASQRFLEHLV-NH2 [SEQ ID NO: 19]	6.2 -log M
B3	7.5 -log M
B4	7.9 -log M
B5	7.3 -log M
B6	6.8 -log M
B7	8 -log M
H[Aib]EGTFTSDVSTLK([AEEA-AEEA-γGlu-C20 diacid])ETAASQRFLEHLV-NH2 [SEQ ID NO: 20]	6.4 -log M
B8	6.6 -log M
B9	7.3 -log M
H[Aib]EGTFTSDWSYLK([AEEA-AEEA-γGlu-C20 diacid])EEA[Aib]LQRFLEHLV-NH2 [SEQ ID NO: 185]	7.3 -log M
